Results: patent publication US11639389B2, “Binding molecules with modified J-chain” (IGM Biosciences, Inc., dated 2023)

Biological target: DR5 (TRAILR2) (Homo sapiens)
Assay: cell-based or functional assay

Binder	cell viability of COLO205 cells after 24 hours (Cell-Titer Glo)
anti-DR5 IgM (without J-chain) (antibody, V domains shown) VH: EVQLVQSGGGVERPGGSLRLSCAASGFTFDDYGMSWVRQAPGKGLEWVSGINWNGGSTGYADSVKGRVTISRDNAKNSLYLQMNSLRAEDTAVYYCAKILGAGRGWYFDLWGKGTTVTVSS VL: SSELTQDPAVSVALGQTVRITCQGDSLRSYYASWYQQKPGQAPVLVIYGKNNRPSGIPDRFSGSSSGNTASLTITGAQAEDEADYYCNSRDSSGNHVVFGGGTKLTVLG	> 1000 fold, compared to the corresponding IgG
anti-DR5 IgM+wt J-chain (antibody) heavy: not shown light: SSELTQDPAVSVALGQTVRITCQGDSLRSYYASWYQQKPGQAPVLVIYGKNNRPSGIPDRFSGSSSGNTASLTITGAQAEDEADYYCNSRDSSGNHVVFGGGTKLTVLGQPKAAPSVTLFPPSSEELQANKATLVCLISDFYPGAVTVAWKADSSPVKAGVETTTPSKQSNNKYAASSYLSLTPEQWKSHRSYSCQVTHEGSTVEKTVAPTECS not shown	> 1000 fold, compared to the corresponding IgG
